# B1: MEDI-573 (antibody, human IgG2, lambda, V domains shown)
# VH: QVQLVQSGAEVKKPGASVKVSCKASGYTFTSYDINWVRQATGQGLEWMGWMNPNSGNTGYAQKFQGRVTMTRNTSISTAYMELSSLRSEDTAVYYCARDPYYYYYGMDVWGQGTTVTVSS
# VL: QSVLTQPPSVSAAPGQKVTISCSGSSSNIENNHVSWYQQLPGTAPKLLIYDNNKRPSGIPDRFSGSKSGTSATLGITGLQTGDEADYYCETWDTSLSAGRVFGGGTKLTVLG
# notes: also called mAb 7.159.2; anti-IGF antibody
# How the values were obtained:
# [1] = biological target: T1, human insulin-like growth factor 1 (IGF-1) (human, UniProt P05019 49-118); assay: method not stated; affinity quoted in Example 3
# T1 construct: also called hIGF-1
# [2] = biological target: T2, human insulin-like growth factor 2 (IGF-2) (human, UniProt P01344 25-91); assay: method not stated; affinity quoted in Example 3
# T2 construct: also called hIGF-2
# [3] = biological target: T1, human insulin-like growth factor 1 …; assay: cell-based or functional assay
# [4] = biological target: T2, human insulin-like growth factor 2 …; assay: cell-based or functional assay
# T2 sequence (P01344 25-91 limits assumed): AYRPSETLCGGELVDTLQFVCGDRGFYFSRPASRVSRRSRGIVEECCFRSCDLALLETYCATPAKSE
# T1 sequence (P05019 49-118 limits assumed): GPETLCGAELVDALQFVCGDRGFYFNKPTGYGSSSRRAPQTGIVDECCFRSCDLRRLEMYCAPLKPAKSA
binder,measurement,setting,value
B1,Kd,[1],0.000294 µM
same,Kd,[2],2 pM
same,"IC50 (µM), inhibition of IGF-1-stimulated proliferation of MG-63 cells (CellTiter-Glo)",[3],223 µM
same,"IC50 (µM), inhibition of IGF-1-stimulated proliferation of RD-ES cells (CellTiter-Glo)",[3],40 µM
same,"IC50 (µM), inhibition of IGF-1-stimulated proliferation of SAOS2 cells (CellTiter-Glo)",[3],177 µM
same,"IC50 (µM), inhibition of IGF-1-stimulated proliferation of SK-ES-1 cells (CellTiter-Glo)",[3],20 µM
same,"IC50 (µM), inhibition of IGF-2-stimulated proliferation of MG-63 cells (CellTiter-Glo)",[4],5.8 µM
same,"IC50 (µM), inhibition of IGF-2-stimulated proliferation of RD-ES cells (CellTiter-Glo)",[4],2 µM
same,"IC50 (µM), inhibition of IGF-2-stimulated proliferation of SAOS2 cells (CellTiter-Glo)",[4],5.3 µM
same,"IC50 (µM), inhibition of IGF-2-stimulated proliferation of SK-ES-1 cells (CellTiter-Glo)",[4],20 µM

# — patent US20160324962A1 (AstraZeneca / MedImmune, published 2016)
